40 sequences from the nanobody polyreactivity screen of Harvey et al. (2022) can be followed below.

This series can be described thus: yeast display, Sf9 membrane polyspecificity reagent, FACS + sequencing; frameworks hold sequencing errors. An outline of the steps: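 Synthetic nanobody libraries on Saccharomyces cerevisiae BJ5465 were galactose-induced for 36–48 hours, stained 1 hour at 4 °C with 10% biotinylated, detergent-solubilized Sf9 membrane reagent and enriched on streptavidin microbeads. FACS then separated cells into low and high (top ~1%) gates by anti-HA (expression) and streptavidin (reagent binding) fluorescence. Genes were colony-PCR amplified, MiSeq 2 × 250 sequenced and CDR-length filtered. A clone's polyreactivity label is that of its gate of origin.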
Take “QVQLVESGGGLVQAGGSLRLSCAASGSTFGPYAMGWYRPAPGKERELVAAIRSGGSTYYADSVKGRFTISRDNAKNTVYLQMNSLKPEDTAVYYCAAGGHHSYTYWIYYYWGQGTQVTVSS”: the “polyreactivity (PSR sort gate)” value is on record as “low polyreactivity”.

Consider “QVQLVESGGGLVQAGGSLRLSCAASGSIFELYAMGWYRQAPGKERELVAAISSTGGRTYYADSVKGRFTISRDNAKNTVYLQMNSLKPEDTAVYYCNKVWPRVHPWNYDYWGQGTQVTVSS”, for which the “polyreactivity (PSR sort gate)” value is “high polyreactivity”.

Consider “QVQLVESGGGLVQAGGSLRLSCAASGFIFGFNAMGWYRQAPGKERELVAVFNRSGSRTYYADSVKGRFTISRDNAKNTVYLQMNSLKPEDTAVYYCNAYPRYQYWGQGTLVTVSS”, for which the “polyreactivity (PSR sort gate)” value was “high polyreactivity”.

On to “QVQIVESGGGLVQAGGILRLSCAASGRIFYTNAMGWYRKAPAKERELVAAIDNSDSTTYYADSVKWRYTISRDNAKNTVYLQMNSLKPEDTAVYYCAAESYLYTVTFEYWGQGTQVTVSS”, for which the “polyreactivity (PSR sort gate)” value was “high polyreactivity”.

For the sequence “QVQLVESGGGLVQAGGSLRLSCAASGSTFEYYAMVWYRQAAGKERELVDRINWSGGSTYYADSVKGRFTISRDNAKNTVYLQMNSLKPEDTAVYYCNRKLTRFTCFPLAYWGQGTQVTVSS”, the “polyreactivity (PSR sort gate)” value is “low polyreactivity”.

As to “QVQLVESGGGLVQAGGSLRLSCAASGFIFTIYAMGWYRQAPGKERELVAAISSGGSTTYADSVKGRFTISRDNAKNTVYLQMNSLKPEDTAVYYCNADYQYNRYSRVVGGHYVGWYGYWGQGTQVTVSS”, the “polyreactivity (PSR sort gate)” value is on record as “low polyreactivity”.

On to “QVQLVESGGGLVQAGGSLRLSCAASGNTIFHYAMGWYRQAPGKERELVAAISSADSTYYADSVKGRFTISRDNAKNTVYLQMNSLKPEDTAVYYCAKDRPNRPDLYDYWGQGTQVTLSS”, for which the “polyreactivity (PSR sort gate)” value is reported as “low polyreactivity”.

Turning to “QVQLVESGGGLVQAGGSLRLSCAASGSIFVWYAMGWYRQEPGKERELVATISSRGGTTYYADSVKGRFTISRDNAKNTVYLQMNSLKPEDTAVYYCNAKRRAQYGYRVFRYDYWGQGTQVTVSS”, the “polyreactivity (PSR sort gate)” value was “high polyreactivity”.

With “QVQLVESGGGLVQAGGSLRLSCAASGSTFVPNAMGWYRQAPGKERELVAAITSGGITNYADSVQGRFTISRDNAKNTVYLQMNSLKPEDTAVYYCAVLYYILAPGYDYWGQGTQVTVSS”, the “polyreactivity (PSR sort gate)” value was “low polyreactivity”.

As for “QVQLVESGGGLVQAGGSLRLSCAASGSTFQVYAMGWYRQAPGKERELVAAIRYRDGNTYYADSVKGRFTISRDNAKNTVYLQMNSLKPEETAVYYCNARLYMPSGYRRSNGYESDYWGQGTQVTVSS”, the “polyreactivity (PSR sort gate)” value was “high polyreactivity”.

Take “QVQLVESGGGLVQAGGSLRLSCAASGFIFRGNTMGWYRQAPGKERELVAAISASGGSTYYADSVKGRFTISRDNAKNTVYLQMNSLKPEDTAVYYCNVAVIYRSRTYWYGMDYWGQGTQLTVSS”: the “polyreactivity (PSR sort gate)” value was “high polyreactivity”.

“QVQLVESGGGLVQAGGSLRLSCAASGFTFRYYAMGWYRQAPGKEREWVAGISSRGGSTYYADSVKGRFTISRDNAKNTVYLQMNSLKPEDSAVYYCATERFLLGLGYDYWGQGTQVTVSS”: the “polyreactivity (PSR sort gate)” value is on record as “high polyreactivity”.

Turning to “QVQLVESGGGLVQAGGSLRLSCAASGFILDYNAMGWSRQAPGKERELVASIDSGGGTNYADSVKGRFTISRDNAKNTVYLQMNSLKPEDTAVYYCAADVTLWYDYGGQGTQVTVSS”, the “polyreactivity (PSR sort gate)” value is given as “low polyreactivity”.

As to “QVQIVESGAGLVQPGGSLRLSCAASGRTFPLYAMGWYRPAPGKEREFVAAITVSGVSTSYADSVKGRFTISRDNAKNTVYLQMNSLKPEDTAVYYCAADYYIWTYWDVYYWGQGTQVTVSS”, the “polyreactivity (PSR sort gate)” value is “high polyreactivity”.

As to “QVQLVESGGGLVQAGGSLRLSCAASGFTFVRYAMGWYRQAPGKEREFVAAITWSGGGTYYADSVKGRFTISRDNAKNTVYLQMNSLKPEDTAVYYCAADRRAYGGGYWGQGTQVTVSS”, the “polyreactivity (PSR sort gate)” value is recorded as “high polyreactivity”.

Regarding “QVQLVESGGGLVQAGGSLRLSCAASGFTFSKYVMGWYRQAPGKERELVAAISKRGGSTYYADSVKGRFTISRDNAKNTVYLQMNSLKPEDTAVYYCAARYYLEPILEMDYWGQGTQVTVSS”, the “polyreactivity (PSR sort gate)” value is “high polyreactivity”.

For “QVHLVESGGGLVQAGGSLRLSCAASGRTFFRYAMGWYTQAPGKERELVAAITRSGGSTYYADSVKGRFTISRDNAKNTVYLEMNSLKPEDTAVYYCAAPREAYSRGYDSWGQGTQVTVSS”, the “polyreactivity (PSR sort gate)” value was “high polyreactivity”.

“QVQLVESGGGLVQAGGSLRLSCAAAGRTIRRIAMGWYRQAPGKERELVAAISKSGGRTYYADSVKGRFTISRDKAKKTVYLQMNSMKPEDTAVYYCGAYDTVYNSGDYDYWGQGTQVTVSS”: the “polyreactivity (PSR sort gate)” value is recorded as “high polyreactivity”.

As for “QVQLVESGGGLVQAGGSLRLSCAASGRIFRYYTMGWYRQAPGKERELVAAITARGTRTYYADSVKGRFTISRDNAKNTVYLQMNSLKPEETSVYYCAADRYIYFAPSMDYWGQGTQVTVSS”, the “polyreactivity (PSR sort gate)” value is “high polyreactivity”.

“QVQLVESGGGLVQAGGSLRLSCAASGSIFATYAMGWYRQAPGKERELVAAITASDGSTNYADSVKGRFTLSRDNAQNTVYLQMNSLKPEDTAVYYCATDAPYRTDSDSGFDAGYDYWGQGTQVTLSS”: the “polyreactivity (PSR sort gate)” value is “low polyreactivity”.

On to “QVQLVESGGGLVQAGGILRLSSAASGLILPDYAMGWYRQAPGKERELVAAISEYAGSTYYADSVKGRFTISRDNAKNTVYLQMNSLKPEDTAVYYCAAEVWFYSWYFWYYDGEDYWGQGTQVTVSS”, for which the “polyreactivity (PSR sort gate)” value is given as “high polyreactivity”.

Take “QVQHVESGGGLVQAVGSLRLSFAASGSIFRGYAMGGYRPAPGKERELVAAIRYSGARTYYADSVKGRFTISRDNAKNTVYLQMNSLKPEDTAVYYCNARSYSRTHYDYWGQGTQVTVSS”: the “polyreactivity (PSR sort gate)” value is given as “high polyreactivity”.

Regarding “QVQLVESGGGLVQAGGSLRLSCAASGITFSYNAMGWYRQAPGKERELVAAISDIGGSTYYADSVKGRFTISRDNAKNTVYLQMNSLKPEDTAVYYCAADEYYQDESDYWGQGTQVTVSS”, the “polyreactivity (PSR sort gate)” value was “low polyreactivity”.

With “QVQLVESGGGLVQAGGSLRLSCAASGNTFFKNAMGWYRQAPGKERELVAAISKRGGSTYYADSVKGRFTISRDNAKNTVYLQMNSLIPEDTAVYYCAADTFGVYASTYDYWGQGTQVTVSS”, the “polyreactivity (PSR sort gate)” value is listed as “high polyreactivity”.

For “QVQLVESGVGLVQAGGSLRLSCAASGSIFGPYAMGWSRQAPGKERELVAAISLGGGSTYYAASVKGRFTISRDNAKNTVYLQMNSVKPEDTAVYYCNAEFSSGPYGYNGFDYWGQGTQVTVSS”, the “polyreactivity (PSR sort gate)” value is listed as “low polyreactivity”.

As to “QVQLVESGGGLVQAGGSLRLSCAASGSIFSYYAMGWYRQAPGKERELVAAISKRGASTYYADSVKGRFTISRDNAKNTVYLQMNSLKPEDTAVYYCNRVLYDHSFPYNRGYDYWGQGTQVTVSS”, the “polyreactivity (PSR sort gate)” value is “high polyreactivity”.

Turning to “QVQLVESGGGLVQAGGSLRLSCAASGFIFRLNAMGWYTQAPGKERELVATITSSGSTSYADSVKGRFTISRDNAKNTVYLQMNSLKPEDTAVYYCAARRLRYRYPLYSRNYWGQGTQVTVSS”, the “polyreactivity (PSR sort gate)” value was “high polyreactivity”.

“QVQLVESGGGLVQAGGSLRLSCAASGSIFKGNAMGWYRQAPGKERDLVAAISRSGGSTYYADSVKGRFTISRDNAKNTVYLQMNSLKPEDTAVYYCNAVRRNTVRSKGRYDYWGQGTQVTVSS”: the “polyreactivity (PSR sort gate)” value was “high polyreactivity”.

Take “QVQLVESGGGLVQAGGSLRLSCDASGFTFRAYPIGWYREAPGKERELVAAITYSGGRTYYADSVKGRFTISRDNAKNTVYLQMNSLKPEDTAVYYCANYDYWGQGTQVTVSS”: the “polyreactivity (PSR sort gate)” value is recorded as “high polyreactivity”.

“QVQLVESGGGLVQAGGSLRLSCAASGITFDYYPMGWYRQEPGKERELVAVITWSVGSTKYADSVKGRFTISRDNAKNTVYLLMNRLKPEETAVYNCNPRPPRWVRSMDYWGHGTQVTVSS”: the “polyreactivity (PSR sort gate)” value is reported as “high polyreactivity”.

With “QVQLVESGGGLVQAGGSLRLSCAASGRTFGGNAMGWYRQAPGKERELVATIRSSSSTNYADSVKGRFTISRDNAKNTVYLQMNSLKPEDTAVYYCARRSQRGIYSMYYWGQGTQVTVSS”, the “polyreactivity (PSR sort gate)” value is “low polyreactivity”.

For the sequence “QVQLVESGGGLVQAGGSLRLSCAASGSIFSYYAMGWYRQATAKERDLVAAISTSCGNTYYADSVKGRFTISRDNPKNRVYVQMNSLKPEDTAVYYCAAENVWAWFYGYDYWGQGTQVTVSS”, the “polyreactivity (PSR sort gate)” value is “high polyreactivity”.

In the case of “QVQLVESGGGLVQAGGSLRLSCAASGSIFYYNAMGWYRQAPGKERELVAAIRRSGGRTYYADSVKGRFTISRDNAKNTVYLQMNSLKPEDTAVYYCAAVHYDRVTGQVDHDYWGQGTQVTVSS”, the “polyreactivity (PSR sort gate)” value was “high polyreactivity”.

As to “QVHLVESGGGLVQAGGSLRLSCAASGRTVEGNAMGWYIQAPGKERELVAAITSGGRTNYADSVKGRFTISRDNAKNTVYLQMNSLKPVDTAVYYCAVETRDRSTDFPGQAYDYWGQGTQLTVSS”, the “polyreactivity (PSR sort gate)” value is listed as “low polyreactivity”.

As for “QVQLVESGGGLVQAGVSLRLSCAASGFSFAKNAMAWYRQAPGKERELVADITYSGGSTYADSVKGRFTISLDNAKNTVYFQMNSLKPEDTAVYYCAADSRRRSCYDYWVQGTQVTVSS”, the “polyreactivity (PSR sort gate)” value is “low polyreactivity”.

On to “QVQLVESGGGLVQAGGSLRVSCAASGRIFDENAMGWYRPAPGKERELVAAIDWSGGSTYYADSVKGRFTISRDYAKNTVYLQMNRQKPEDTAVYYCNADYYYYVSLGWWSFIVSEYDYWGHGTQVTVSS”, for which the “polyreactivity (PSR sort gate)” value is recorded as “low polyreactivity”.

In the case of “QVQLVESGGGLVQAGGSLRLSCAASGSTFKVYTMGWYRQAPGKERELVAAITGGGGSTYYADSVKGRFTISRDNAKNTVSLQMNSLKPEDTAVYYCAAQKRGPGYPYYYWGQGTQVTVSS”, the “polyreactivity (PSR sort gate)” value is “high polyreactivity”.

With “QVQLVESGGGLVQAGGSLRLSCAASGRTFLVYAMGWYRQAPGKERELVATIRASTGSTYADSVKGRFTISRDNAKNTVYLQMNSLKPEDTAVYYCAASIRTSPYNYDYWGQGTQVTVSS”, the “polyreactivity (PSR sort gate)” value is “high polyreactivity”.

For the sequence “QVQLVDSGGGLVQAGGSLRLSCAASGSTLGENAMGWYRQAPGKERELVSAIRQSSGRTYYADSVKGRFTISRDNAKNTVYLQMNSLKPEDTAVYYCANYYWGQGTQVTVST”, the “polyreactivity (PSR sort gate)” value is listed as “low polyreactivity”.

As to “QDQHVESGGGLVQAGASLRLSCSASGRIFRRYAMGWYRQAPGKERELVAAISWSGGTTYYADSVKGRFTISRDNAKNTVYLQINSLKPEDTAVYYCAKLYSSVTTTYPYGLPRYDSWGQGTQVTLSS”, the “polyreactivity (PSR sort gate)” value is “high polyreactivity”.
